Experimental data published in patent EP4682166A1 (Guangzhou Enmai Biotechnology Co., Ltd, dated 2026).

T1: human NMI (N-myc Interacting protein) (human, UniProt Q13287 1-307, limits assumed)
T1 construct: Immunogen and ELISA coating antigen; also called hNMI; antigen 1
T1 sequence (looked up): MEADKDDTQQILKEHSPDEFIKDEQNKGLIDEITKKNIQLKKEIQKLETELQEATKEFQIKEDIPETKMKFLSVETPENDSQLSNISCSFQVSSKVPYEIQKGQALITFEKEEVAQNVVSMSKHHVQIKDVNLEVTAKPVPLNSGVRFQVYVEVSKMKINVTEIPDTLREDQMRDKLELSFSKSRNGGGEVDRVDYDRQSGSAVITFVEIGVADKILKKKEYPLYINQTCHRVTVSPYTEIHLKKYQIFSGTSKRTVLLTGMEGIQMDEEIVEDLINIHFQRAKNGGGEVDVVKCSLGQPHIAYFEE

T2: human NMI (N-myc Interacting protein), recombinant protein (human, UniProt Q13287 1-307, limits assumed)
T2 construct: Gene ID: 9111; also called hNMI; antigen
T2 sequence (looked up): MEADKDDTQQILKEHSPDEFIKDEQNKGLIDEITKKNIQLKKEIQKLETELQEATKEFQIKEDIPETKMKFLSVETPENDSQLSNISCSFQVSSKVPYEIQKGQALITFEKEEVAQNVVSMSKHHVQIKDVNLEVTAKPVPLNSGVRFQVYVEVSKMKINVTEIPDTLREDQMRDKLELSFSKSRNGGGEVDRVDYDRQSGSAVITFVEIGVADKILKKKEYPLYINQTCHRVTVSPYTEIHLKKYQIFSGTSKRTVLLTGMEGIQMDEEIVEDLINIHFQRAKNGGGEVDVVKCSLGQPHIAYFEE


Experiments:
[1] = biological target: T1, human NMI (N-myc Interacting protein); assay: I-ELISA, hNMI coated 1 ug/mL; antibody 625 ng/mL
[2] = biological target: T1, human NMI (N-myc Interacting protein); assay: I-ELISA, hNMI coated 1 ug/mL; antibody 1250 ng/mL
[3] = biological target: T1, human NMI (N-myc Interacting protein); assay: I-ELISA, hNMI coated 1 ug/mL; antibody 2500 ng/mL
[4] = biological target: T1, human NMI (N-myc Interacting protein); assay: indirect ELISA, human NMI coated (repeats Table 3)
[5] = biological target: T1, human NMI (N-myc Interacting protein); assay: I-ELISA, hNMI coated 1 ug/mL; antibody 312.5 ng/mL
[6] = biological target: T1, human NMI (N-myc Interacting protein); assay: I-ELISA, hNMI coated 1 ug/mL; antibody 156.25 ng/mL
[7] = biological target: T1, human NMI (N-myc Interacting protein); assay: I-ELISA, hNMI coated 1 ug/mL; antibody 78.125 ng/mL
[8] = biological target: T1, human NMI (N-myc Interacting protein); assay: I-ELISA, hNMI coated 1 ug/mL; antibody 39.0625 ng/mL
[9] = biological target: T1, human NMI (N-myc Interacting protein); assay: I-ELISA, hNMI coated 1 ug/mL; antibody 19.53125 ng/mL
[10] = biological target: T1, human NMI (N-myc Interacting protein); assay: I-ELISA, hNMI coated 1 ug/mL; antibody 9.765625 ng/mL
[11] = biological target: T1, human NMI (N-myc Interacting protein); assay: I-ELISA, hNMI coated 1 ug/mL; antibody 1.2207031 ng/mL
[12] = biological target: T1, human NMI (N-myc Interacting protein); assay: I-ELISA, hNMI coated 1 ug/mL; antibody 2.4414063 ng/mL
[13] = biological target: T1, human NMI (N-myc Interacting protein); assay: I-ELISA, hNMI coated 1 ug/mL; antibody 4.8828125 ng/mL
[14] = biological target: T1, human NMI (N-myc Interacting protein); assay: indirect ELISA, human NMI coated; supernatant dilution series
[15] = biological target: T1, human NMI (N-myc Interacting protein); assay: sandwich ELISA; coating antibody 2.5 ug/mL, detection 94C4-biotin 0.5 ug/mL
[16] = biological target: T1, human NMI (N-myc Interacting protein); assay: indirect ELISA, human NMI coated; supernatant 1/3
[17] = biological target: T1, human NMI (N-myc Interacting protein); assay: indirect ELISA, human NMI coated; supernatant 1/9
[18] = biological target: T1, human NMI (N-myc Interacting protein); assay: indirect ELISA, human NMI coated; supernatant 1/27
[19] = biological target: T1, human NMI (N-myc Interacting protein); assay: indirect ELISA, human NMI coated; supernatant 1/81
[20] = biological target: T1, human NMI (N-myc Interacting protein); assay: indirect ELISA, human NMI coated (repeats Table 1)
[21] = biological target: T1, human NMI (N-myc Interacting protein); assay: indirect ELISA, human NMI coated; supernatant 1/243
[22] = biological target: T1, human NMI (N-myc Interacting protein); assay: indirect ELISA, human NMI coated; supernatant 1/729
[23] = biological target: T1, human NMI (N-myc Interacting protein); assay: indirect ELISA, human NMI coated; supernatant 1/2187
[24] = biological target: T1, human NMI (N-myc Interacting protein); assay: indirect ELISA, human NMI coated; supernatant 1/6561
[25] = biological target: T1, human NMI (N-myc Interacting protein); assay: indirect ELISA, human NMI coated; supernatant 1/19683
[26] = biological target: T1, human NMI (N-myc Interacting protein); assay: indirect ELISA, human NMI coated; supernatant 1/59049
[27] = biological target: T1, human NMI (N-myc Interacting protein); assay: indirect ELISA, human NMI coated; supernatant undiluted
[28] = biological target: T1, human NMI (N-myc Interacting protein); assay: indirect ELISA, human NMI coated; supernatant dilution series; remark: listed apart in the source
[29] = biological target: T2, human NMI (N-myc Interacting protein), …; assay: indirect ELISA, coated hNMI
[30] = biological target: T2, human NMI (N-myc Interacting protein), …; assay: sandwich ELISA; detection 39B4-1-biotin; hNMI 1.235 ng/mL
[31] = biological target: T2, human NMI (N-myc Interacting protein), …; assay: sandwich ELISA; detection 39B4-1-biotin; hNMI 3.704 ng/mL
[32] = biological target: T2, human NMI (N-myc Interacting protein), …; assay: sandwich ELISA; detection 39B4-1-biotin; hNMI 11.111 ng/mL
[33] = biological target: T2, human NMI (N-myc Interacting protein), …; assay: sandwich ELISA; detection 39B4-1-biotin; hNMI 33.333 ng/mL
[34] = biological target: T2, human NMI (N-myc Interacting protein), …; assay: sandwich ELISA; detection 98G10-1-biotin; hNMI 1.235 ng/mL
[35] = biological target: T2, human NMI (N-myc Interacting protein), …; assay: sandwich ELISA; detection 98G10-1-biotin; hNMI 3.704 ng/mL
[36] = biological target: T2, human NMI (N-myc Interacting protein), …; assay: sandwich ELISA; detection 39B4-1-biotin; hNMI 100.000 ng/mL
[37] = biological target: T2, human NMI (N-myc Interacting protein), …; assay: sandwich ELISA; detection 98G10-1-biotin; hNMI 11.111 ng/mL
[38] = biological target: T2, human NMI (N-myc Interacting protein), …; assay: sandwich ELISA; detection 98G10-1-biotin; hNMI 33.333 ng/mL
[39] = biological target: T2, human NMI (N-myc Interacting protein), …; assay: sandwich ELISA; detection 98G10-1-biotin; hNMI 100.000 ng/mL

OD450 [1] [OD450] | OD450 [2] [OD450] | OD450 [3] [OD450] | EC50 [4] [ng/mL] | OD450 [5] [OD450] | OD450 [6] [OD450] | OD450 [7] [OD450] | OD450 [8] [OD450] | OD450 [9] [OD450] | OD450 [10] [OD450] | OD450 [11] [OD450] | OD450 [12] [OD450] | OD450 [13] [OD450] | EC50 [14] [ng/mL] | detection limit (sensitivity) [15] [pg/mL] | Binder | further results
1.62 | 1.68 | 1.85 | 2.51 | 1.67 | 1.36 | 1.26 | 0.838 | 0.502 | 0.243 | 0.084 | 0.099 | 0.143 | 2.51 | 60 | B-8 (antibody, V domains shown, Rabbit monoclonal antibody; also called B8-1; B-8-biotin (biotin-labelled form)) VH: QSLEESGGDLVKPGASLTLTCTASGFSFSSSYYMCWVRQAPGKGLEWIACIYAGSSGSTYYASWAKGRFTISKTSSTTVTLQMTSLTAADTATYFCAREYSYDDYGDFWGFNLWGPGTLVTVSS VL: ALVMTQTPSSVSAAVGGTVTINCQASQNIYTNLAWYQQKPGQPPKLLIYGASNLESGVPSRFKGSGSGTEYTLTISDLECDDAATYYCQSSLYSRIADRANAFGGGTEVVVK | –
1.99 | 2.13 | 2.25 | – | 1.99 | 1.8 | 1.43 | 0.828 | 0.529 | 0.296 | 0.077 | 0.099 | 0.159 | – | 40 | 39B4 (antibody, V domains shown, Rabbit monoclonal antibody; also called 39B4-1; 39B4-1-biotin (biotin-labelled form)) VH: QEQLVESGGGLVQPEGSLTLTCTASGFSFSSSYWICWVRQAPGKGLEWIACIYAGTSGSTYYASWAKGRFTISKTSSTTVDLQMNSLTAADTATYFCARAGYYTYGAGVYIYPSSFKLWGPGTLVTVSS VL: DVVMTQTPASVEAAVGGTVTIKCQASESIGNALAWYQQKPGQPPKLLIYSASNLASGVPSRFSGSGSGTQFTLTISDLECADAATYYCQSYYYSSSSITFGGGTEVVVK | ELISA OD [16]: 3.43 OD; ELISA OD [17]: 3.41 OD; ELISA OD [18]: 3.35 OD; ELISA OD [19]: 3.28 OD; EC50 [20]: 0.567 ng/mL; ELISA OD [21]: 3.1 OD; ELISA OD [22]: 2.76 OD; ELISA OD [23]: 2.32 OD; ELISA OD [24]: 1.61 OD; ELISA OD [25]: 0.758 OD; ELISA OD [26]: 0.415 OD; ELISA OD [27]: 3.4 OD; EC50 [28]: 0.567 ng/mL
– | – | – | – | – | – | – | – | – | – | – | – | – | – | – | monoclonal antibody 94C4 (antibody, V domains shown, Rabbit monoclonal antibody; Used biotin-labelled as detection antibody (94C4-1-biotin); also called 94C4-1) VH: QSLEESGGGLVQPEGSLTLTCKASGFDFSSNAMCWVRQAPGKGLEWIACISSASSGSSGSTYYASWAKGRFTISKTSSTTVTLQMTSLTAADMATYFCARDGYDLWGPGTLVTVSS VL: QVLTQTPSSVSAAVGGTVTISCQSSPSVYNNYLSWFQQKPGQSPKLLIYRVSTLASGVPSRFSGSGSGTQFTLTISGVQCDDAATYYCAGGYDSASDTYVFGGGTEVVVK | EC50 [29]: 32.7 ng/mL; OD450 [30]: 0.372 OD450; OD450 [31]: 0.735 OD450; OD450 [32]: 1.67 OD450; OD450 [33]: 2.75 OD450; OD450 [34]: 0.292 OD450; OD450 [35]: 0.627 OD450; OD450 [36]: 3.22 OD450; OD450 [37]: 1.36 OD450; OD450 [38]: 2.51 OD450; OD450 [39]: 3.1 OD450
2.2 | 2.13 | 2.15 | 2.6 | 2.19 | 1.85 | 1.46 | 0.996 | 0.573 | 0.333 | 0.077 | 0.105 | 0.163 | 2.6 | 60 | 240B10-1 (antibody, V domains shown, Rabbit monoclonal antibody; also called 240B10-1-biotin (biotin-labelled form)) VH: QSLEESGGRLVTPGGSLTLTCTVSGIDLSSYTMGWVRQAPGKGLEYIGIISGGGRTYYASWAKGRFTISKTSSTTVDLKVTSLTTEDTATYFCARIYTLWGQGTLVTVSS VL: QVLTQTLASVSAAVGGTVTINCQSSQSVYNNDYLAWFQQKSGQPPKQLIHSASKLASGVPSRFKGSGSGTQFTLTINDVQCDDAATYYCLGGYDCYSADCNVFGGGTEVVVK | –
